In patent US20240352134A1 (NANJING IMMUNOPHAGE BIOTECH, published 2024):
Changes are numbered by the printed parent chain. One block for each binder: values may come before it.

How the values were obtained:
human CCR8 [1] = biological target: T1, human CCR8 (human, UniProt P51685 1-355); assay: cell-based or functional assay
human CCR8 [2] = biological target: T1, human CCR8; assay: FACS as in Example 2; antibody after 40° C. 1 W; ratio to T0
human CCR4 = biological target: T2, human CCR4 (human, UniProt P51679 1-360); assay: flow cytometry on 293F cells expressing human CCR4; 14 dilutions by 3-fold from 25 µg/mL
T2 construct: whole, on cells; also called hCCR4
T2 sequence (looked up): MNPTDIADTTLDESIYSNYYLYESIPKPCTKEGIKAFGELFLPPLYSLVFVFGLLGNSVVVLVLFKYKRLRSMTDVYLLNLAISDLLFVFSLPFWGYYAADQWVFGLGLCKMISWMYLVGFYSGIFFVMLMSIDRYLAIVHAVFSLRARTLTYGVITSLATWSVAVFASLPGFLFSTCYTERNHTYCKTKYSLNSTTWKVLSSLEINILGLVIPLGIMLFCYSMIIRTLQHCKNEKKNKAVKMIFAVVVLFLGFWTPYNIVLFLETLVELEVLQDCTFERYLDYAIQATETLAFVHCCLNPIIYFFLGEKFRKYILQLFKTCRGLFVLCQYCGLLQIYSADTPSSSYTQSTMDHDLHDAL
Procedure: (§1) 3F11hz4 humanized antibody was tested for binding to CCR4 and CX3CR1 overexpressing cells by flow cytometry. […] After reacting at 4° C. for 1 hour, it was reacted with Alexa Fluor 488 affinipure goat anti-human Ig(H+L) (Jackson, 109-545-003) and flow cytometry analysis was performed.

hCCR8(L96A) = biological target: T3, hCCR8(L96A) (human, UniProt P51685 1-355); assay: flow cytometry on 293F cells transiently expressing the mutant; column 'Inhibition EC50 (nM)'
T3 construct: whole, on cells
Procedure: (§2) Human, rat, dog, mouse and cynomolgus CCR8 sequence were analysis. The result was shown that ECD2 regions of human, rat, dog, mouse and cynomolgus CCR8 were similar (Table 10). […] After reacting at 4° C. for 1 hour, it was reacted with Alexa Fluor 488 affinpure goat anti-human Ig(H+L) (Jackson, 109-545-003) and flow cytometry analysis was performed. The highest MFI of serially dilution is supposed as 100%, the inhibition percent was calculated according to the following formula.

hCCR8(Y94A) = biological target: T4, hCCR8(Y94A) (human, UniProt P51685 1-355); assay: as above
T4 construct: whole, on cells
Procedure: as §2

hCCR8(M105A) = biological target: T5, hCCR8(M105A) (human, UniProt P51685 1-355); assay: as above
T5 construct: whole, on cells
Procedure: as §2

hCCR8(V100A) = biological target: T6, hCCR8(V100A) (human, UniProt P51685 1-355); assay: as above
T6 construct: whole, on cells
Procedure: as §2

hCCR8(D97A) = biological target: T7, hCCR8(D97A) (human, UniProt P51685 1-355); assay: as above
T7 construct: whole, on cells; also called mutant of 97 aa in CCR8
Procedure: as §2

hCCR8(L95A) = biological target: T8, hCCR8(L95A) (human, UniProt P51685 1-355); assay: as above
T8 construct: whole, on cells
Procedure: as §2

hCCR8(Q98A) = biological target: T9, hCCR8(Q98A) (human, UniProt P51685 1-355); assay: as above
T9 construct: whole, on cells
Procedure: as §2

hCCR8(K107A) = biological target: T10, hCCR8(K107A) (human, UniProt P51685 1-355); assay: as above
T10 construct: whole, on cells
Procedure: as §2

hCCR8(V104A) = biological target: T11, hCCR8(V104A) (human, UniProt P51685 1-355); assay: as above
T11 construct: whole, on cells
Procedure: as §2

hCCR8(T103A) = biological target: T12, hCCR8(T103A) (human, UniProt P51685 1-355); assay: as above
T12 construct: whole, on cells
Procedure: as §2

human CCR8 [3] = biological target: T1, human CCR8; assay: FACS as in Example 2; antibody after 40° C. 2 W; ratio to T0
human CX3CR1 = biological target: T13, human CX3CR1 (human, UniProt P49238 1-355); assay: flow cytometry on 293F cells expressing human CX3CR1; 14 dilutions by 3-fold from 25 µg/mL
T13 construct: whole, on cells; also called hCX3CR1
T13 sequence (looked up): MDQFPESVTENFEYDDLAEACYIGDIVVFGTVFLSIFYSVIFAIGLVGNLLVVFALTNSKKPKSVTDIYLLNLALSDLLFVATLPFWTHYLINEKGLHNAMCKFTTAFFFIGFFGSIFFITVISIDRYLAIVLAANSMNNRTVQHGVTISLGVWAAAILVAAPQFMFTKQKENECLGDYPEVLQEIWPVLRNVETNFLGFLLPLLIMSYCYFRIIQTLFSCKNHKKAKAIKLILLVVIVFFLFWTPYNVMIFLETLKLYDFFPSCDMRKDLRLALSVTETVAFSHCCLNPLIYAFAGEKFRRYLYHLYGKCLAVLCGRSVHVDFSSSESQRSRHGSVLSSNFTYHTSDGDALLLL
Procedure: as §1

human CCR8 [4] = biological target: T1, human CCR8; assay: FACS as in Example 2; antibody after Freeze/thaw 5FT; ratio to T0
human CCR8 [5] = biological target: T1, human CCR8; assay: cell-based or functional assay; remark: listed apart in the source
human CCR8 [6] = biological target: T1, human CCR8; assay: binding affinity EC50, comparison of Table 12 (FACS on CCR8-expressing cells)
human CCR8 [7] = biological target: T1, human CCR8; assay: FACS on human CCR8-expressing 293F cells
human CCR8 [8] = biological target: T1, human CCR8; assay: FACS as in Example 2; T0 (the reference itself)
human CCR8 [9] = biological target: T1, human CCR8; assay: flow cytometry on 293F cells expressing hCCR8; column 'Inhibition EC50 (nM)'
Procedure: as §2

human CCR8 [10] = biological target: T1, human CCR8; assay: FACS as in Example 2; antibody after 40° C. 4 W; ratio to T0
human CCR8 [11] = biological target: T1, human CCR8; assay: FACS as in Example 2; antibody after Oxidation 24 h; ratio to T0

T1 sequence (P51685 whole entry): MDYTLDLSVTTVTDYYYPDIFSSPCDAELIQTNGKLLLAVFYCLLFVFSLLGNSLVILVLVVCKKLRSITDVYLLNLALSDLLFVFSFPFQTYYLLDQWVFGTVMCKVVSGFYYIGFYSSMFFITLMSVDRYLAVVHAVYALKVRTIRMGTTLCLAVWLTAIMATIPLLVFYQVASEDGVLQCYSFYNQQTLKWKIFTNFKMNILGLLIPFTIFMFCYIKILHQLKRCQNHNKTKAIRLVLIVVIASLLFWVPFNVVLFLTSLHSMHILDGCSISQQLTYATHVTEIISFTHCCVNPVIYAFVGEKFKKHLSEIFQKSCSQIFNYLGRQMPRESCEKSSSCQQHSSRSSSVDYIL
T11 sequence (P51685 whole entry V104A): as the sequence (P51685 whole entry) above, with V104A counted along it
T8 sequence (P51685 whole entry L95A): as the sequence (P51685 whole entry) above, with L95A counted along it
T3 sequence (P51685 whole entry L96A): as the sequence (P51685 whole entry) above, with L96A counted along it
T10 sequence (P51685 whole entry K107A): as the sequence (P51685 whole entry) above, with K107A counted along it
T9 sequence (P51685 whole entry Q98A): as the sequence (P51685 whole entry) above, with Q98A counted along it
T12 sequence (P51685 whole entry T103A): as the sequence (P51685 whole entry) above, with T103A counted along it
T5 sequence (P51685 whole entry M105A): as the sequence (P51685 whole entry) above, with M105A counted along it
T4 sequence (P51685 whole entry Y94A): as the sequence (P51685 whole entry) above, with Y94A counted along it
T6 sequence (P51685 whole entry V100A): as the sequence (P51685 whole entry) above, with V100A counted along it
T7 sequence (P51685 whole entry D97A): as the sequence (P51685 whole entry) above, with D97A counted along it

Calcium mobilization IC50 (nM) Ratio; 40° C. 1 W (human CCR8 [1]): 1.31
Calcium mobilization IC50 (nM) Ratio; 40° C. 2 W (human CCR8 [1]): 1.03
Calcium mobilization IC50 (nM) Ratio; 40° C. 4 W (human CCR8 [1]): 2.22
Calcium mobilization IC50 (nM) Ratio; Freeze/thaw 5FT (human CCR8 [1]): 1.5
Calcium mobilization IC50 (nM) Ratio; Oxidation 24 h (human CCR8 [1]): 1.63
Calcium mobilization IC50 (nM) Ratio; T0 (human CCR8 [1]): 1
Affinity EC50 (nM) Ratio (human CCR8 [2]): 1.34
binding result (human CCR4): no binding (tested: 25 µg/mL)
EC50 (hCCR8(L96A)): 280 pM
EC50 (hCCR8(Y94A)): 306 pM
EC50 (hCCR8(M105A)): 334 pM
EC50 (hCCR8(V100A)): 237 pM
EC50 (hCCR8(D97A)): 24000 pM
EC50 (hCCR8(L95A)): 459 pM
EC50 (hCCR8(Q98A)): 194 pM
EC50 (hCCR8(K107A)): 220 pM
EC50 (hCCR8(V104A)): 341 pM
EC50 (hCCR8(T103A)): 311 pM
Affinity EC50 (nM) Ratio (human CCR8 [3]): 1.27
binding result (human CX3CR1): no binding (tested: 25 µg/mL)
Affinity EC50 (nM) Ratio (human CCR8 [4]): 1.22
Calcium mobilization IC50 (human CCR8 [5]): 4000 pM
EC50 (human CCR8 [6]): 190 pM
EC50 (human CCR8 [7]): 194 pM
Affinity EC50 (nM) Ratio (human CCR8 [8]): 1
EC50 (human CCR8 [9]): 234 pM
Affinity EC50 (nM) Ratio (human CCR8 [10]): 1.35
Affinity EC50 (nM) Ratio (human CCR8 [11]): 1.36
B1: 3F11hz4 (antibody, V domains shown)
VH: EVQLVESGGGLVQPGGSLKLSCAASGFSFNTYAMNWVRQASGKGLEWVGRIRSKSNYYATYYAASVKGRFTISRDDSKSTLYLQMNSLKTEDTAVYYCVRGRELGDYYAMDYWGQGTLVTVSS
VL: DIVMTQSPLSLPVTPGEPASISCRSSKSLLHSNGNTYLYWFLQKPGQSPQLLIYRMSNLASGVPDRFSGSGSGTDFTLKISRVEAEDVGVYYCMQHLEYPFTFGQGTKLEIK
notes: Humanized variant of 3F11; also called humanized 3F11hz4 antibody

Calcium mobilization IC50 (nM) Ratio; 40° C. 1 W (human CCR8 [1]): 3.02
Calcium mobilization IC50 (nM) Ratio; 40° C. 2 W (human CCR8 [1]): 0.98
Calcium mobilization IC50 (nM) Ratio; 40° C. 4 W (human CCR8 [1]): 1.86
Calcium mobilization IC50 (nM) Ratio; Freeze/thaw 5FT (human CCR8 [1]): 1.37
Calcium mobilization IC50 (nM) Ratio; Oxidation 24 h (human CCR8 [1]): 1.42
Calcium mobilization IC50 (nM) Ratio; T0 (human CCR8 [1]): 1
Affinity EC50 (nM) Ratio (human CCR8 [2]): 0.79
Affinity EC50 (nM) Ratio (human CCR8 [3]): 1.14
Affinity EC50 (nM) Ratio (human CCR8 [4]): 1.22
Calcium mobilization IC50 (human CCR8 [5]): 7390 pM
EC50 (human CCR8 [7]): 135 pM
Affinity EC50 (nM) Ratio (human CCR8 [8]): 1
Affinity EC50 (nM) Ratio (human CCR8 [10]): 1.65
Affinity EC50 (nM) Ratio (human CCR8 [11]): 2.13
B2: 3O20hz2 (antibody, V domains shown)
VH: EVQLVESGGGLVQPGGSLKLSCATSGFSFNAYAMNWVRQASGKGLEWVGRIRSKSNNYATYYAASVKGRFTISRDDSKTTLYLQMNSLKTEDTAVYYCVRGGYHGNSAYFDVWGQGTLVTVSS
VL: B1 VL with M94L
notes: Humanized variant of 3O20

EC50 (human CCR8 [6]): 650 pM
B3: TPP-23411 (antibody, V domains shown)
VH: EVQLLESGGGLVQPGGSLRLSCAASGFTFSSYGMHWVRQAPGKGLEWVSAINWNGGSTGYADSVKGRFTISRDNSKNTLYLQMNSLRAEDTAVYYCARGHHSGYDGRFFDYWGQGTLVTVSS
VL: QSVLTQPPSVSGAPGQRVTISCTGSSSNIGAGYNVHWYQQLPGTAPKLLIYTNNRRPSGVPDRFSGSKSGTSASLAISGLRSEDEADYYCAAWDASLSGWVFGGGTKLTVLG

Calcium mobilization IC50 (nM) Ratio; 40° C. 1 W (human CCR8 [1]): 3.07
Calcium mobilization IC50 (nM) Ratio; 40° C. 2 W (human CCR8 [1]): 1.38
Calcium mobilization IC50 (nM) Ratio; 40° C. 4 W (human CCR8 [1]): 2.35
Calcium mobilization IC50 (nM) Ratio; Freeze/thaw 5FT (human CCR8 [1]): 0.32
Calcium mobilization IC50 (nM) Ratio; Oxidation 24 h (human CCR8 [1]): 1.14
Calcium mobilization IC50 (nM) Ratio; T0 (human CCR8 [1]): 1
Affinity EC50 (nM) Ratio (human CCR8 [2]): 0.91
Affinity EC50 (nM) Ratio (human CCR8 [3]): 1.31
Affinity EC50 (nM) Ratio (human CCR8 [4]): 2.43
Calcium mobilization IC50 (human CCR8 [5]): 25300 pM
EC50 (human CCR8 [7]): 470 pM
Affinity EC50 (nM) Ratio (human CCR8 [8]): 1
Affinity EC50 (nM) Ratio (human CCR8 [10]): 1.1
Affinity EC50 (nM) Ratio (human CCR8 [11]): 1.71
B4: 1G17hz3 (antibody, V domains shown)
VH: QVQLVQSGAEVKKPGASVKVSCKASGYTFADYEMHWVRQAPGQGLEWMGAIDPETGRTAYAQKFQGRVTMTADRSTSTAYMELSSLRSEDTAVYYCTRRAYWGGWGQGTLVTVSS
VL: DVVMTQSPLSLPVTLGQPASISCRSSQSLVHSSGNTYLHWYQQRPGQSPRLLIYKVSNRFSGVPDRFSGSGSGTDFTLKISRVEAEDVGVYFCSQSTHVPYTFGQGTKLEIK
notes: Humanized variant of 1G17
